The values below come from US20160207963A1 (GlaxoSmithKline, published 2016).

The target in assay [1] is purified, his-tag depleted, recombinant Viet04 HA trimers (influenza A virus A/Vietnam/1203/04 …, UniProt Q6J8F6 17-531). The assay is described as follows: complex formation, size exclusion gel filtration (Superdex 200). (SEC sorts molecules by how far they enter the pores of the column.)
For a further assay, the target named is Vietnam Wt (HA1) (influenza A virus A/Vietnam/1203/04 …, UniProt Q6J8F6 17-346). In words: biolayer interferometry (ForteBio), HA1 on biosensors probed with IgG 10 µg/ml. (Biolayer interferometry detects binding as a change in optical thickness at a sensor tip.)

B1: 1A2 Fab (Fab, V domains shown)
VH: EVQLQQSGPELVKPGASVKMSCKASGYTFTSFIMYWVKQKPGQGLEWLGYIDPYNDGTKYNEKFEGKATLTSDKSSSTAYMELSSLTSEDSAVYYCAKRGNYGNGFAYWGQGTLVTVSA
VL: DIVMTQSQKFVSTSVGDRVSVTCKASQNVGSNVAWYQHKPGHSPTALIYSASHRYSGVPDRFTGSESGTDFTLTISNVQSEDLAEYFCQQYYSYPYTFGGGTKLEIKR
Take B1: the binding result in assay [1] is reported as “binds”.

B2: mouse IgG 1A2 (antibody, V domains shown)
VH: B1 VH
VL: B1 VL
B2: in the assay with Vietnam Wt (HA1), the binding result is given as “binds”.
